Experiment [1] addresses T1, SAT C-terminal C10 peptide C-terminal 10 residues (Salmonella typhimurium, UniProt P29847).
T1 chain: HHTFEYGDGI
In words: PLP fluorescence titration.

Experiment [2] addresses T2, SAT C-terminal C10 peptide C-terminal 10 residues (Haemophilus influenzae, UniProt P43886).
T2 chain: GIDDGMNLNI
In words: PLP fluorescence titration.

B1: Cysteine synthase (StCS) (protein)
chain: SKIYEDNSLTIGHTPLVRLNRIGNGRILAKVESRNPSFSVKCRIGANMIWDAEKRGVLKPGVELVEPTSGNTGIALAYVAAARGYKLTLTMPETMSIERRKLLKALGANLVLTEGAKGMKGAIQKAEEIVASDPQKYLLLQQFSNPANPEIHEKTTGPEIWEDTDGQVDVFISGVGTGGTLTGVTRYIKGTKGKTDLITVAVEPTDSPVIAQALAGEEIKPGPHKIQGIGAGFIPGNLDLKLIDKVVGITNEEAISTARRLMEEEGILAGISSGAAVAAALKLQEDESFTNKNIVVILPSSGERYLSTALFADLFTEKELQQ
What is called Kd is the free concentration of one partner at which half of the binding sites on the other are occupied at equilibrium, for simple one-to-one binding. A lower Kd goes with tighter binding. Take B1: binding in experiment [1] was put at a Kd of 290 nM.

B2: Cysteine synthase (HiCS) (protein)
chain: MAIYADNSYSIGNTPLVRLKHFGHNGNVVVKIEGRNPSYSVKCRIGANMVWQAEKDGTLTKGKEIVDATSGNTGIALAYVAAARGYKITLTMPETMSLERKRLLCGLGVNLVLTEGAKGMKGAIAKAEEIVASDPSRYVMLKQFENPANPQIHRETTGPEIWKDTDGKVDVVVAGVGTGGSITGISRAIKLDFGKQITSVAVEPVESPVISQTLAGEEVKPGPHKIQGIGAGFIPKNLDLSIIDRVETVDSDTALATARRLMAEEGILAGISSGAAVAAADRLAKLPEFADKLIVVILPSASERYLSTALFEGIEG
For B2, binding in experiment [2] was put at a Kd of 3400 nM.

The values are drawn from paper PMC7948407 (2020).
